# Results reported in PMC10786891, “Massively parallel profiling of RNA-targeting CRISPR-Cas13d”.
# T1: EsCas13d, nuclease-dead (Eubacterium siraeum, UniProt B0MS50, R295A;H300A;R849A;H854A)
# T1 sequence: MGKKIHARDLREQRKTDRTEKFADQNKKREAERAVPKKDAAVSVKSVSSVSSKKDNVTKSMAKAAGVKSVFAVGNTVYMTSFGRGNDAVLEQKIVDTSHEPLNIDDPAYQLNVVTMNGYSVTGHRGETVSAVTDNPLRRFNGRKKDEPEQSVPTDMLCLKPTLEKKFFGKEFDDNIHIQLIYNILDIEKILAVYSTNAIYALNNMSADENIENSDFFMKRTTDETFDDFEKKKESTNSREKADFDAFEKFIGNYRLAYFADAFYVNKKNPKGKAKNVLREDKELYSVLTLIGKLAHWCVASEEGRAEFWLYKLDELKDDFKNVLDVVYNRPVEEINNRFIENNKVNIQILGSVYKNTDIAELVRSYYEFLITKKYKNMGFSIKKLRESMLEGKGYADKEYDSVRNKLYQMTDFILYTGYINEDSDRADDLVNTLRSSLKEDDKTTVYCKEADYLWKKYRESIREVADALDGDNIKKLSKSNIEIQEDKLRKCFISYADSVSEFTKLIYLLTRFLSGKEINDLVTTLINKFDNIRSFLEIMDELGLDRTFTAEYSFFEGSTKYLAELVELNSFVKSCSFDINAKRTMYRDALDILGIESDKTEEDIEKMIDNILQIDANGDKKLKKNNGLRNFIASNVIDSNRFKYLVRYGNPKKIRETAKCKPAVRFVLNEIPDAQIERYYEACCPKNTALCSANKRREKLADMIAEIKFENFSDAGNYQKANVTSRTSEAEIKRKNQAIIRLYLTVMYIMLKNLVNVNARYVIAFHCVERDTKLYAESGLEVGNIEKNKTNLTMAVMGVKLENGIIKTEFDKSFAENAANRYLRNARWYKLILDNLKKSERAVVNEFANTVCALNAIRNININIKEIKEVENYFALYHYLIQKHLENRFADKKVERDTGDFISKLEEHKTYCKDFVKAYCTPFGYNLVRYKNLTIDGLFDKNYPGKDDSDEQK
# B1: target 1 A9G,G17U (mixed)
# RNA 1: CACCCGUGCAAAAAUGCAGGGGUCUAAAACUGAGCGGAUAACCUCUCUAUGG
# RNA 2: GGGAAUGGAUCCACAUCUACGAAUUCGUACCAUAUAGAGGUUGUCCGCUCACCGAGAUCGGAAGAGCACACGU
# B2: target 1 insG 3' of 18 (mixed)
# RNA 1: CACCCGUGCAAAAAUGCAGGGGUCUAAAACUGAGCGGAUAACCUCUCUAUGG
# RNA 2: GGGAAUGGAUCCACAUCUACGAAUUCGUACCAUAGGAGAGGUUAUCCGCUCACCGAGAUCGGAAGAGCACACGU
# B3: target 1 insU 3' of 18,insC 3' of 3 (mixed)
# RNA 1: CACCCGUGCAAAAAUGCAGGGGUCUAAAACUGAGCGGAUAACCUCUCUAUGG
# RNA 2: GGGAAUGGAUCCACAUCUACGAAUUCGUACCAUAUGAGAGGUUAUCCGCUCCACCGAGAUCGGAAGAGCACACGU
# B4: target 1 A1C,U3G (mixed)
# RNA 1: CACCCGUGCAAAAAUGCAGGGGUCUAAAACUGAGCGGAUAACCUCUCUAUGG
# RNA 2: GGGAAUGGAUCCACAUCUACGAAUUCGUACCAUAGAGAGGUUAUCCGCGCCCCGAGAUCGGAAGAGCACACGU
# B5: target 1 insA 3' of 21,insA 3' of 7 (mixed)
# RNA 1: CACCCGUGCAAAAAUGCAGGGGUCUAAAACUGAGCGGAUAACCUCUCUAUGG
# RNA 2: GGGAAUGGAUCCACAUCUACGAAUUCGUACCAAUAGAGAGGUUAUCACGCUCACCGAGAUCGGAAGAGCACACGU
# B6: target 1 U3A,C4U (mixed)
# RNA 1: CACCCGUGCAAAAAUGCAGGGGUCUAAAACUGAGCGGAUAACCUCUCUAUGG
# RNA 2: GGGAAUGGAUCCACAUCUACGAAUUCGUACCAUAGAGAGGUUAUCCGUACACCGAGAUCGGAAGAGCACACGU
# B7: target 1 C6U,A18U (mixed)
# RNA 1: CACCCGUGCAAAAAUGCAGGGGUCUAAAACUGAGCGGAUAACCUCUCUAUGG
# RNA 2: GGGAAUGGAUCCACAUCUACGAAUUCGUACCAUUGAGAGGUUAUCUGCUCACCGAGAUCGGAAGAGCACACGU
# B8: target 1 A1G,U3G (mixed)
# RNA 1: CACCCGUGCAAAAAUGCAGGGGUCUAAAACUGAGCGGAUAACCUCUCUAUGG
# RNA 2: GGGAAUGGAUCCACAUCUACGAAUUCGUACCAUAGAGAGGUUAUCCGCGCGCCGAGAUCGGAAGAGCACACGU
# B9: target 1 insA 3' of 11,insA 3' of 11 (mixed)
# RNA 1: CACCCGUGCAAAAAUGCAGGGGUCUAAAACUGAGCGGAUAACCUCUCUAUGG
# RNA 2: GGGAAUGGAUCCACAUCUACGAAUUCGUACCAUAGAGAGGUAAUAUCCGCUCACCGAGAUCGGAAGAGCACACGU
# B10: target 1 U11G,C22U (mixed)
# RNA 1: CACCCGUGCAAAAAUGCAGGGGUCUAAAACUGAGCGGAUAACCUCUCUAUGG
# RNA 2: GGGAAUGGAUCCACAUCUACGAAUUCGUAUCAUAGAGAGGGUAUCCGCUCACCGAGAUCGGAAGAGCACACGU
# B11: target 1 U3G (mixed)
# RNA 1: CACCCGUGCAAAAAUGCAGGGGUCUAAAACUGAGCGGAUAACCUCUCUAUGG
# RNA 2: GGGAAUGGAUCCACAUCUACGAAUUCGUACCAUAGAGAGGUUAUCCGCGCACCGAGAUCGGAAGAGCACACGU
# B12: target 1 del9,del18 (mixed)
# RNA 1: CACCCGUGCAAAAAUGCAGGGGUCUAAAACUGAGCGGAUAACCUCUCUAUGG
# RNA 2: GGGAAUGGAUCCACAUCUACGAAUUCGUACCAUGAGAGGUUUCCGCUCACCGAGAUCGGAAGAGCACACGU
# B13: target 1 G12U,G15U (mixed)
# RNA 1: CACCCGUGCAAAAAUGCAGGGGUCUAAAACUGAGCGGAUAACCUCUCUAUGG
# RNA 2: GGGAAUGGAUCCACAUCUACGAAUUCGUACCAUAGAUAGUUUAUCCGCUCACCGAGAUCGGAAGAGCACACGU
# Target: T1, EsCas13d, nuclease-dead
# Experiment: crRNA (strand 1, pre-loaded); Mg2+; 40 mM Tris-HCl pH 7.5, 150 mM NaCl, 6 mM MgCl2, 1 mM DTT, 0.1% Tween-20, 0.2 mg/ml BSA; 25 C; 10 min per concentration, then washed
# Settings: tags: His6-TwinStrep-SUMO cleaved; N-terminal SNAP kept (SNAP-Surface 488); label: 3' end held by stalled T7 RNA polymerase
row,Binder,Kd [nM]
1,B1,35 ± 6
2,B2,48 ± 5
3,B3,28 ± 4
4,B4,46 ± 7
5,B5,12.6 ± 0.8
6,B6,37 ± 5
7,B7,25.8 ± 2
8,B8,3.35 ± 0.12
9,B9,8.6 ± 0.5
10,B10,42 ± 7
11,B11,11.3 ± 1.3
12,B12,100 ± 50
13,B13,23.3 ± 1.8
